One assay relates to 3×MBT domain of L3MBTL1. In words: Triple SILAC pull-down, 3xMBT/3xMBTD355N ratio (cytoplasmic, nuclear and chromatin fractions of 293T cells).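 As to all read-outs here: proteins quantified with MaxQuant, requiring at least two unique peptides and quantification in both label directions, normalized to the mean of proteins from a digested loading control.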 Format: binding, human. As to conditions: SILAC ratio, pull-down 3xMBT vs 3xMBTD355N; for 3xMBT/D355N UNC Heavy: experiment with UNC0638 in heavy SILAC media; for 3xMBT/D355N UNC Light: experiment with UNC0638 in light SILAC media.
For a further assay, the target named is T1, G9a and GLP (Homo sapiens, UniProt Q96KQ7+Q9H9B1).
T1 sequence (Q96KQ7 2-1210 limits assumed): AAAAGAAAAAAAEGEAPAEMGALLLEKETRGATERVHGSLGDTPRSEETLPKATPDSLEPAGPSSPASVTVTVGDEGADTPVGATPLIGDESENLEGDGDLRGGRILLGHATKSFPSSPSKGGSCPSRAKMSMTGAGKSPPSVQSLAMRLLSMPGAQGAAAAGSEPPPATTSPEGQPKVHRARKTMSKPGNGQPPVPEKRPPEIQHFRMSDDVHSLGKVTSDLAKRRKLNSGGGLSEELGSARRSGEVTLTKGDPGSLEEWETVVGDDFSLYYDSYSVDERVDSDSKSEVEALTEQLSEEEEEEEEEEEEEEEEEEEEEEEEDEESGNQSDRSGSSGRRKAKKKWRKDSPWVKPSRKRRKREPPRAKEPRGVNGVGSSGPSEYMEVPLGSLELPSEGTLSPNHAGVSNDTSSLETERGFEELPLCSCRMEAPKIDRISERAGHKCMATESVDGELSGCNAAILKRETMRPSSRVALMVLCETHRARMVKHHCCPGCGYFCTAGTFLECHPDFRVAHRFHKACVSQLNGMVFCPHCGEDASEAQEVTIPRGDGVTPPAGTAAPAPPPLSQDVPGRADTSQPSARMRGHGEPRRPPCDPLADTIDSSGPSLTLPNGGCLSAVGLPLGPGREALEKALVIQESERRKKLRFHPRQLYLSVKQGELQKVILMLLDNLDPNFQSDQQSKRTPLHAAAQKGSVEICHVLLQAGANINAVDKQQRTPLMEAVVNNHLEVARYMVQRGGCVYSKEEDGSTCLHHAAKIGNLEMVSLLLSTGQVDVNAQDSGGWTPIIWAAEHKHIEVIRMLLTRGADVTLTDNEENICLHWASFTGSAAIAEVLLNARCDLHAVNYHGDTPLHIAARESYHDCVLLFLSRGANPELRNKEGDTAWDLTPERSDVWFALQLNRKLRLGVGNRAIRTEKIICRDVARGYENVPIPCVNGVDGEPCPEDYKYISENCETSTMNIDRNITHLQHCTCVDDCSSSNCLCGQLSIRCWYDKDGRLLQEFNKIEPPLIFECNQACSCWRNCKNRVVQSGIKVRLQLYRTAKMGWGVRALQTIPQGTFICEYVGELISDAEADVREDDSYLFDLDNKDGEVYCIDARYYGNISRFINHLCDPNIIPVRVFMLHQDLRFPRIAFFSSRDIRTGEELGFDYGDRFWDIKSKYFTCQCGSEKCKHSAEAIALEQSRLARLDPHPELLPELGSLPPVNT
T1 sequence (Q9H9B1 2-1298 limits assumed): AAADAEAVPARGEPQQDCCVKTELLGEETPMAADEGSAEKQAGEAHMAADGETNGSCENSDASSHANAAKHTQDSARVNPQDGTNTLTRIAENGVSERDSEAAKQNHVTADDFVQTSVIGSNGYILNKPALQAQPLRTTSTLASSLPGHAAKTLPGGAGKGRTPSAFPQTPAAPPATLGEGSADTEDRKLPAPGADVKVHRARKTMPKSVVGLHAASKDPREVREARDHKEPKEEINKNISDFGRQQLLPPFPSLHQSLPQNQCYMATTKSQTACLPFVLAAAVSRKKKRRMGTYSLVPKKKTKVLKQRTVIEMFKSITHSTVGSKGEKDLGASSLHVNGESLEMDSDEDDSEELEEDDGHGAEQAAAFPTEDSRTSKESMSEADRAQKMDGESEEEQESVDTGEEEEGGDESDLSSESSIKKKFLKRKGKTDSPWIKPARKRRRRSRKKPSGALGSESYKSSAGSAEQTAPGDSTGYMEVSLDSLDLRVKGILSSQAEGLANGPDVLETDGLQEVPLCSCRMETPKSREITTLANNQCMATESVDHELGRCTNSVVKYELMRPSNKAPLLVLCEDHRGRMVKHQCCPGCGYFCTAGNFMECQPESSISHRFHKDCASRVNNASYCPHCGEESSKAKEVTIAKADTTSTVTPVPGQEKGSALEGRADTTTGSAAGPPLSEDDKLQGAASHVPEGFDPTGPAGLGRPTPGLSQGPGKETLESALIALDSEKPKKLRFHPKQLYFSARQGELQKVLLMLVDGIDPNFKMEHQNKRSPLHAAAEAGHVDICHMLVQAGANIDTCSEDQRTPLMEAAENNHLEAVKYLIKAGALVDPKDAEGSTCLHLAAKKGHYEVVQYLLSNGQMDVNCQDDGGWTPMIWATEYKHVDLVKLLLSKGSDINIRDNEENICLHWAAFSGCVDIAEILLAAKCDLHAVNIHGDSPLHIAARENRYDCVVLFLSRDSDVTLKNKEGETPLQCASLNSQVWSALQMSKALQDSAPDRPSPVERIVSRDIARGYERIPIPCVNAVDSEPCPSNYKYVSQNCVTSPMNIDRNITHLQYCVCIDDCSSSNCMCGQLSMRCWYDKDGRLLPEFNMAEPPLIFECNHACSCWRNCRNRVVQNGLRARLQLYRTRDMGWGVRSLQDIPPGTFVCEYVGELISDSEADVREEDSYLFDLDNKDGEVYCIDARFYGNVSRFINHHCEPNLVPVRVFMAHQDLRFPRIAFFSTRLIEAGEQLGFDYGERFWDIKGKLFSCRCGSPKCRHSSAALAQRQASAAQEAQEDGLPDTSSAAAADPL
In words: Triple SILAC pull-down after UNC0638 treatment of 293T cells, DMSO/UNC0638 ratio of protein captured by 3×MBT.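 As to all read-outs here: mass spectrometry (Q-Exactive) SILAC quantitation, DMSO/UNC0638 ratio computed after subtracting 3×MBTD355N mutant pull-down background, only proteins with at least twofold 3×MBT over mutant signal considered.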 The note with it: for Relative to UNC0638 UNC Heavy / Relative to UNC0638 UNC Light: SILAC ratio DMSO/UNC0638 of protein pulled down with 3xMBT; for Relative to UNC0638 UNC Heavy: UNC0638 in heavy SILAC media; for Relative to UNC0638 UNC Light: UNC0638 in light SILAC media; for Relative to UNC0638 Average: average of UNC Light and UNC Heavy experiments. Also on record: cells were treated for 24 hours with UNC0638 at 2.5 μM or DMSO vehicle control; endogenous in cells; host or cells: HEK 293T. It is filed as cell-based.

B1: FAM98B (protein, UniProt Q52LJ0 1-433, looked up)
Protein FAM98B: MRGPEPGPQPTMEGDVLDTLEALGYKGPLLEEQALTKAAEGGLSSPEFSELCIWLGSQIKSLCNLEESITSAGRDDLESFQLEISGFLKEMACPYSVLISGDIKDRLKKKEDCLKLLLFLSTELQASQILQNKKHKNSQLDKNSEVYQEVQAMFDTLGIPKSTTSDIPHMLNQVESKVKDILSKVQKNHVGKPLLKMDLNSEQAEQLERINDALSCEYECRRRMLMKRLDVTVQSFGWSDRAKVKTDDIARIYQPKRYALSPKTTITMAHLLAAREDLSKIIRTSSGTSREKTACAINKVLMGRVPDRGGRPNEIEPPPPEMPPWQKRQEGGGGRGGWGGGGGGGGRGGGGGGGGRGGWGGGGGGWGGGGGGGGGWGGGGGGGRGGFQGRGDYGGRGGYGGRGGYGGRGYGDPYGGGGGGGGGGGGGGGYRRY
As for B1, in the assay with 3×MBT domain of L3MBTL1, the “3xMBT/D355N UNC Heavy” value was determined as 3.88 log base 2 and the “3xMBT/D355N UNC Light” value was found to be 3.18 log base 2. Also, in the assay with G9a and GLP, the “Relative to UNC0638 UNC Heavy” value worked out at 0.11 log base 2, the “Relative to UNC0638 UNC Light” value was 0.14 log base 2 and the “Relative to UNC0638 Average” value was 0.13 log base 2.

B2: PUM1 (protein, UniProt Q14671 2-1186, looked up)
Pumilio homolog 1: SVACVLKRKAVLWQDSFSPHLKHHPQEPANPNMPVVLTSGTGSQAQPQPAANQALAAGTHSSPVPGSIGVAGRSQDDAMVDYFFQRQHGEQLGGGGSGGGGYNNSKHRWPTGDNIHAEHQVRSMDELNHDFQALALEGRAMGEQLLPGKKFWETDESSKDGPKGIFLGDQWRDSAWGTSDHSVSQPIMVQRRPGQSFHVNSEVNSVLSPRSESGGLGVSMVEYVLSSSPGDSCLRKGGFGPRDADSDENDKGEKKNKGTFDGDKLGDLKEEGDVMDKTNGLPVQNGIDADVKDFSRTPGNCQNSANEVDLLGPNQNGSEGLAQLTSTNGAKPVEDFSNMESQSVPLDPMEHVGMEPLQFDYSGTQVPVDSAAATVGLFDYNSQQQLFQRPNALAVQQLTAAQQQQYALAAAHQPHIGLAPAAFVPNPYIISAAPPGTDPYTAGLAAAATLGPAVVPHQYYGVTPWGVYPASLFQQQAAAAAAATNSANQQTTPQAQQGQQQVLRGGASQRPLTPNQNQQGQQTDPLVAAAAVNSALAFGQGLAAGMPGYPVLAPAAYYDQTGALVVNAGARNGLGAPVRLVAPAPVIISSSAAQAAVAAAAASANGAAGGLAGTTNGPFRPLGTQQPQPQPQQQPNNNLASSSFYGNNSLNSNSQSSSLFSQGSAQPANTSLGFGSSSSLGATLGSALGGFGTAVANSNTGSGSRRDSLTGSSDLYKRTSSSLTPIGHSFYNGLSFSSSPGPVGMPLPSQGPGHSQTPPPSLSSHGSSSSLNLGGLTNGSGRYISAAPGAEAKYRSASSASSLFSPSSTLFSSSRLRYGMSDVMPSGRSRLLEDFRNNRYPNLQLREIAGHIMEFSQDQHGSRFIQLKLERATPAERQLVFNEILQAAYQLMVDVFGNYVIQKFFEFGSLEQKLALAERIRGHVLSLALQMYGCRVIQKALEFIPSDQQNEMVRELDGHVLKCVKDQNGNHVVQKCIECVQPQSLQFIIDAFKGQVFALSTHPYGCRVIQRILEHCLPDQTLPILEELHQHTEQLVQDQYGNYVIQHVLEHGRPEDKSKIVAEIRGNVLVLSQHKFASNVVEKCVTHASRTERAVLIDEVCTMNDGPHSALYTMMKDQYANYVVQKMIDVAEPGQRKIVMHKIRPHIATLRKYTYGKHILAKLEKYYMKNGVDLGPICGPPNGII
Take B2: in the assay on 3×MBT domain of L3MBTL1, the “3xMBT/D355N UNC Heavy” value was determined as 2.08 log base 2 and the “3xMBT/D355N UNC Light” value turned out to be 1.66 log base 2. Also, in the assay with G9a and GLP, the “Relative to UNC0638 UNC Heavy” value is recorded as 0.35 log base 2, the “Relative to UNC0638 UNC Light” value was −0.08 log base 2 and the “Relative to UNC0638 Average” value was determined as 0.13 log base 2.

B3: ILKAP (protein, UniProt Q9H0C8 1-392, looked up)
Integrin-linked …: MDLFGDLPEPERSPRPAAGKEAQKGPLLFDDLPPASSTDSGSGGPLLFDDLPPASSGDSGSLATSISQMVKTEGKGAKRKTSEEEKNGSEELVEKKVCKASSVIFGLKGYVAERKGEREEMQDAHVILNDITEECRPPSSLITRVSYFAVFDGHGGIRASKFAAQNLHQNLIRKFPKGDVISVEKTVKRCLLDTFKHTDEEFLKQASSQKPAWKDGSTATCVLAVDNILYIANLGDSRAILCRYNEESQKHAALSLSKEHNPTQYEERMRIQKAGGNVRDGRVLGVLEVSRSIGDGQYKRCGVTSVPDIRRCQLTPNDRFILLACDGLFKVFTPEEAVNFILSCLEDEKIQTREGKSAADARYEAACNRLANKAVQRGSADNVTVMVVRIGH
Regarding B3, in the assay with 3×MBT domain of L3MBTL1, the “3xMBT/D355N UNC Heavy” value is on record as 3.22 log base 2 and the “3xMBT/D355N UNC Light” value is given as 2.54 log base 2. Besides, in the assay with G9a and GLP, the “Relative to UNC0638 UNC Heavy” value is reported as −0.07 log base 2, the “Relative to UNC0638 UNC Light” value amounted to 0.33 log base 2 and the “Relative to UNC0638 Average” value stood at 0.13 log base 2.

B4: MINA (protein, UniProt Q8IUF8 1-465, looked up)
Ribosomal oxygenase 2: MPKKAKPTGSGKEEGPAPCKQMKLEAAGGPSALNFDSPSSLFESLISPIKTETFFKEFWEQKPLLIQRDDPALATYYGSLFKLTDLKSLCSRGMYYGRDVNVCRCVNGKKKVLNKDGKAHFLQLRKDFDQKRATIQFHQPQRFKDELWRIQEKLECYFGSLVGSNVYITPAGSQGLPPHYDDVEVFILQLEGEKHWRLYHPTVPLAREYSVEAEERIGRPVHEFMLKPGDLLYFPRGTIHQADTPAGLAHSTHVTISTYQNNSWGDFLLDTISGLVFDTAKEDVELRTGIPRQLLLQVESTTVATRRLSGFLRTLADRLEGTKELLSSDMKKDFIMHRLPPYSAGDGAELSTPGGKLPRLDSVVRLQFKDHIVLTVLPDQDQSDEAQEKMVYIYHSLKNSRETHMMGNEEETEFHGLRFPLSHLDALKQIWNSPAISVKDLKLTTDEEKESLVLSLWTECLIQVV
For B4, in the assay on 3×MBT domain of L3MBTL1, the “3xMBT/D355N UNC Heavy” value is given as 2.27 log base 2 and the “3xMBT/D355N UNC Light” value came out at 2.12 log base 2. For the same molecule, in the assay with G9a and GLP, the “Relative to UNC0638 UNC Heavy” value turned out to be 0.34 log base 2, the “Relative to UNC0638 UNC Light” value was −0.08 log base 2 and the “Relative to UNC0638 Average” value was 0.13 log base 2.

The values are drawn from patent US20140274782A1, “AFFINITY REAGENTS AND METHODS FOR DETECTION, PURIFICATION, AND PROTEOMIC ANALYSIS OF METHYLATED PROTEINS” (The Board of Trustees of the Leland Stanford Junior …, priority 2013, published 2014).
